The values below come from US20230074657A1 (SHANGHAI HENLIUS BIOTECH, published 2023).

Numbering of substitutions follows the chain as printed.

The term EC50 (read off the curve) denotes the concentration needed to bring the measured effect to its halfway point. Usually Kd stands for the constant that tells how readily two partners part at equilibrium. Broadly, the koff is a measure of how fast the partners let go of each other. As a reminder, the kon is the rate constant with which the complex forms.

In assay [1] the target is T1, Recombinant mouse LAG3-Fc fusion protein (mouse, UniProt Q61790 24-442, limits assumed).
T1 construct: Bought; not shown: Fc part; not described
T1 sequence (looked up): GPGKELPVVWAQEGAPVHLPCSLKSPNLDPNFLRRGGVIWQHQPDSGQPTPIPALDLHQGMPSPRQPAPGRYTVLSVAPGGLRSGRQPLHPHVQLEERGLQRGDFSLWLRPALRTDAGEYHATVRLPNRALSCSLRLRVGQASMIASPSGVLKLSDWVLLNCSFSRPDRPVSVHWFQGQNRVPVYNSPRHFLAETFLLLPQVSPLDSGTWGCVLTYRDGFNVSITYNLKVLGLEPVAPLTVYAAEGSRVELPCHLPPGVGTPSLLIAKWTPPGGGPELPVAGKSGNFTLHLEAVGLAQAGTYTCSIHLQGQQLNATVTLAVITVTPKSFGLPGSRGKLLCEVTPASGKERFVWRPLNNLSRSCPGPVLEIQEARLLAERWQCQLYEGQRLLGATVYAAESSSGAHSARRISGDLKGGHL
The assay is described as follows: ELISA, plate coated with mouse LAG3-Fc. The procedure: The plate is washed 3 times with PBS containing 0.05% Tween 20 (PBST). The plate is blocked with PBS containing 5% skimmed milk for 1 hour at room temperature. […] The plate is washed 3 times with PBST, and 30 μl of 1:2000 diluted horseradish peroxidase-labeled goat anti-human IgG kappa light chain secondary antibody (millipore) is added thereto, and the plate is allowed to stand at room temperature for 1 hour. The plate is washed 6 times with PBST, and TMB is added thereto for color development. The reaction is stopped with 2M H₂SO₄. The plate is read at 450 nm with a microplate reader.
(In general: In an ELISA, binding on a coated surface is turned into a signal by an enzyme label.)

The target in assay [2] is T2, LAG3-Fc recombinant protein (UniProt P18627 23-450).
T2 construct: also called LAG3-Fc (Acro); LAG3-Fc protein; not shown: Fc part
T2 sequence (looked up): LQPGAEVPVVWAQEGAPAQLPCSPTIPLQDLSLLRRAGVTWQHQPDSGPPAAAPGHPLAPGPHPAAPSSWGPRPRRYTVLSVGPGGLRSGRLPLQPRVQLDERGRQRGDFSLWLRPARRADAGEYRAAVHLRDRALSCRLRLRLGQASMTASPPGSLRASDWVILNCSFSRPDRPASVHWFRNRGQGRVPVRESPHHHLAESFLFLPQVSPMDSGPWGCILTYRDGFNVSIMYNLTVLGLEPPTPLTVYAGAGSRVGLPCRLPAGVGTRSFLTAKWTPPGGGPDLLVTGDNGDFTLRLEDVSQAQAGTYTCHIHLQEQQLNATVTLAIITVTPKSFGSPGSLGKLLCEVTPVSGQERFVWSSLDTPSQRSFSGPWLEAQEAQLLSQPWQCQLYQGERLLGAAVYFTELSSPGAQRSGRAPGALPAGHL
Description: ELISA on coated LAG3-Fc, anti-human kappa-HRP. The method, then: The affinity of the humanized antibody for LAG3 is detected by an ELISA technique. […] The plate is washed 3 times with PBS containing 0.05% Tween 20 (PBST). The plate is blocked with PBS containing 5% skimmed milk for 1 hour at room temperature. […] The plate is washed 3 times with PBST, and 30 μl of 1:4000 diluted horseradish peroxidase-labeled goat anti-human IgG kappa light chain secondary antibody (Millipore) is added thereto, and the plate is allowed to stand at room temperature for 1 hour. The plate is washed 6 times with PBST, and TMB is added thereto for color development. The reaction is stopped with 2M H₂SO₄. The plate is read at 450 nm with a microplate reader.

Assay [3] addresses T3, full-length human LAG3 on the cell surface (transfected CHO-S or Jurkat cells) (human, UniProt P18627 23-525).
T3 construct: whole, on cells; also called LAG3 on the cell membrane
T3 sequence (looked up): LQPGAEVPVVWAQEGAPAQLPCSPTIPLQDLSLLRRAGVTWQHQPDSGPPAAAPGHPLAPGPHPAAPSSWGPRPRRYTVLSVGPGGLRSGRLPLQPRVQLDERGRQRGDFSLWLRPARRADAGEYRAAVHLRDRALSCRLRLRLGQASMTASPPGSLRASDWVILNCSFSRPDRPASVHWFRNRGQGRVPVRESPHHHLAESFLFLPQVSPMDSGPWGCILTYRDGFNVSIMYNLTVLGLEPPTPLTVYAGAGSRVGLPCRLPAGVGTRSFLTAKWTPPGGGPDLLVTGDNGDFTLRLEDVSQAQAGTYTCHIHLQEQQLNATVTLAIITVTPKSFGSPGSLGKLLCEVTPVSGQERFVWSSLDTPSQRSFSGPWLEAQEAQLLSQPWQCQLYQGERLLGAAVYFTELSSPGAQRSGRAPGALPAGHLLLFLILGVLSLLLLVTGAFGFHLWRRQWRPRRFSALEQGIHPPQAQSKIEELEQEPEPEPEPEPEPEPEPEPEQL
The assay is described as follows: flow cytometry on CHO-S cells expressing full-length human LAG3 [panel 6A]. The procedure:
(§1) The binding of the humanized antibodies to LAG3 on the cell surface is determined by a flow cytometry method. The transfected CHO-S or Jurkat cells expressing the full-length human LAG3 gene are taken and washed twice with PBS (2% FBS), and the cell concentration is adjusted to 5×10⁵/100 μl. 1:3 gradient-diluted anti-LAG3 humanized antibody is added, and incubated at 4° C. for 30 min. […] The cells are centrifuged at 500×g for 5 min. The cells are washed twice with PBS (2% FBS). 1:300 diluted goat anti-human IgG Fab-FITC (Thermo Fisher) is added, and incubated at 4° C. for 30 min. The cells are washed twice with PBS (2% FBS). The cells are suspended in 200 μl PBS and analyzed by flow cytometry.
Background: Flow cytometry measures light scatter and fluorescence of single cells or particles in a stream.

Assay [4] deals with T2, LAG3-Fc recombinant protein. The assay is described as follows: SPR, LAG3-Fc immobilized on the chip, antibody in flow, 1:1 Langmuir fit. The method, then: Surface plasmon resonance (SPR) is used to measure the binding affinity and kinetic constants of the anti-LAG3 humanized antibody for the LAG3 protein. […] The data obtained from the experiments are analyzed using an evaluation software, and the curve is fitted with a 1:1 Langmuir binding model.

Another assay concerns the target T4, Tag1-LAG3 protein (UniProt P18627 23-450).
T4 construct: also called LAG3 (Cisbio kit)
Description: HTRF blocking assay (Cisbio kit): Tag1-LAG3 with Tag2-FGL1 and antibody. The method, then:
The mixture is reacted at room temperature for 15 minutes, and then 10 μL of pre-mixed anti-Tag1-Tb3+ and anti-Tag2-XL665 are added thereto.

The target of assay [5] is T3, full-length human LAG3 on the cell …. The assay is described as follows: flow cytometry on Jurkat cells expressing full-length human LAG3 [panel 6B]. The method, then: as §1
The target of assay [6] is T5, Recombinant cynomolgus monkey LAG3-Fc fusion protein (cynomolgus monkey).
T5 construct: Bought; also called cynomolgus monkey LAG3-Fc protein
The assay is described as follows: SPR, cynomolgus monkey LAG3-Fc immobilized on the chip, antibody in flow, 1:1 Langmuir fit. The procedure:
Surface plasmon resonance (SPR) is used to measure the binding affinity and kinetic constants of the anti-LAG3 humanized antibody for the cynomolgus monkey LAG3 protein. […] The data obtained from the experiments are analyzed using an evaluation software, and the curve is fitted with a 1:1 Langmuir binding model.
Background: SPR reads the build-up and loss of mass on a sensor chip optically.

Assay [7] has as its target T2, LAG3-Fc recombinant protein. Description: flow cytometry blocking assay: antibody premixed with LAG3-Fc (2 µg/ml), binding to MHC II on Raji cells. The method, then:
Raji cells are washed twice with PBS (2% FBS), and the cell concentration is adjusted to 2×10⁵/100 μl. […] The mixture is then mixed with the Raji cells and incubated at 4° C. for 60 min. The cells are centrifuged at 500×g for 5 min. The cells are washed twice with PBS (2% FBS). 1:500 diluted goat anti-human IgG-Fc-Alexa Fluor 488 (Jackson) is added, and incubated at 4° C. for 60 min. The cells are washed twice with PBS (2% FBS). The cells are suspended in 200 μl PBS and analyzed by flow cytometry.

Assay [8] shares this target. Description: ELISA blocking assay: antibody mixed with LSECtin, added to coated LAG3-Fc, bound LSECtin detected with anti-His-HRP. The procedure:
The plate is washed 3 times with PBS containing 0.05% Tween 20 (PBST). […] The plate is washed 6 times with PBST, and TMB is added thereto for color development. The reaction is stopped with 2M H₂SO₄. The plate is read at 450 nm with a microplate reader.

Assay [9] deals with T3, full-length human LAG3 on the cell …. The assay is described as follows: flow cytometry on Jurkat cells expressing full-length human LAG3, anti-mouse IgG-FITC. The method, then:
(§2) The transfected Jurkat cells expressing the full-length human LAG3 gene are taken and washed twice with PBS (2% FBS), and the cell concentration is adjusted to 2×10⁵/100 μl. […] The cells are centrifuged at 500×g for 5 min. […] The cells are washed twice with PBS (2% FBS). […] The cells are washed twice with PBS (2% FBS). The cells are suspended in 200 μl PBS and analyzed by flow cytometry.

The target is the same in assay [10]. Description: flow cytometry on Jurkat cells expressing full-length human LAG3, anti-human IgG Fab-FITC. The procedure: as §2

B1: anti-LAG3 humanized antibody h6H11B10 (antibody, human IgG4 S228P)
heavy: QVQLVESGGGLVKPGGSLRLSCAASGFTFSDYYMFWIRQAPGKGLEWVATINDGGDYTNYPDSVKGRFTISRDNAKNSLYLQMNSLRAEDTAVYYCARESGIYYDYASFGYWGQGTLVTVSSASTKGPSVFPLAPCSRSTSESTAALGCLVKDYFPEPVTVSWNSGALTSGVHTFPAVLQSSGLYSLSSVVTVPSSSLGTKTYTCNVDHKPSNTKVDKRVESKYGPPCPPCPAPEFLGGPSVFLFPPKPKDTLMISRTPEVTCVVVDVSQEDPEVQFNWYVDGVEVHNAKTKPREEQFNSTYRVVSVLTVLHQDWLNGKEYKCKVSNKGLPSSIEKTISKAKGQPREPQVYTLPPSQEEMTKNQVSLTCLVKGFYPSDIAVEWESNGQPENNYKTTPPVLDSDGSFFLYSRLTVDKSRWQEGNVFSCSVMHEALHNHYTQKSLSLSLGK
light: DIVMTQSPLSLSVTPGEPASISCRSSKSLLYSNGITYLYWYLQKPGQSPQLLIYQMSNLASGVPDRFSGSGSGTDFTLKISRVEAEDVGVYYCAQNLELPWTFGGGTKLEIKRNLAAPSVFIFPPSDEQLKSGTASVVCLLNNFYPREAKVQWKVDNALQSGNSQESVTEQDSKDSTYSLSSTLTLSKADYEKHKVYACEVTHQGLSSPVTKSFNRGEC
notes: Expressed in CHO-S cells
Regarding B1, in assay [1], the binding result is “binds”. The “EC50 (read off the curve)” value in assay [2] and in assay [3] was around 0.3 µg/mL each time.

B2: anti-LAG3 humanized antibody h6H11B10#40 (antibody, human IgG4 S228P)
heavy: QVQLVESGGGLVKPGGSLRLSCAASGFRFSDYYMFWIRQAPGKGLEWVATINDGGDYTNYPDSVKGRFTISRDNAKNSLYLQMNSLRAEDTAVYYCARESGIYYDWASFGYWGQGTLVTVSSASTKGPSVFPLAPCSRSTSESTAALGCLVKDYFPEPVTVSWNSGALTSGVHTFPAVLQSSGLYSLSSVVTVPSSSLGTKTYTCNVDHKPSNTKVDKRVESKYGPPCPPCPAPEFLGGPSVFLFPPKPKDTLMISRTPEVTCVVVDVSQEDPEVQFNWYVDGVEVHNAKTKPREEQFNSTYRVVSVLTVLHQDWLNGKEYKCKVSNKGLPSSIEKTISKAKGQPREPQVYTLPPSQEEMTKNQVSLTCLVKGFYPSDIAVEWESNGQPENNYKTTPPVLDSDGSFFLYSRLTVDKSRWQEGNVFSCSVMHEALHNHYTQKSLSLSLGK
light: B1 light with L30K
notes: Expressed in CHO-S cells
For B2, the entries for the “EC50 (read off the curve)” value in assay [2], in [3] and in [5] were around 0.2 µg/mL, around 0.4 µg/mL and around 0.01 µg/mL, respectively. In addition, the Kd turned out to be 0.313 nM in assay [4] and 1.42 nM in [6]. The koff came to 1.37e-05 s⁻¹ in [4] and 3.09e-05 s⁻¹ in assay [6]. The values for the kon in assay [4] and in assay [6] were 43500 M⁻¹ s⁻¹ and 21700 M⁻¹ s⁻¹, respectively. Further, the results for the “IC50 (read off the curve)” value (with Tag1-LAG3 protein; in assay [7]; in assay [8]) were around 2 µg/mL, around 0.5 µg/mL and around 1 µg/mL, respectively.

B3: anti-LAG3 murine antibody 6H11B10 (antibody, V domains shown)
VH: EVQVVESGGGLVKPGGSLKLSCAASGFTFSDYYMFWVRQTPEERLEWVATINDGGDYTNYPDSVKGRFTISRDNDKNKLYLQMNSLKSEDTAMYYCARESGIYYDYASFGYWGQGTLVTVSS
VL: DIVMTQAAFSNPVTLGTSASISCRSSKSLLYSNGITYLYWYLQKPGQSPQLLIYQMSNLASGVPDRFSSSGSGTDFTLRISRVEAEDVGVYYCAQNLELPWTFGGGTKLEIKRNL
notes: also called m6H11B10; monoclonal hybridoma cell line 6H11B10
Turning to B3, in assay [9], the binding result was “binds”.

B4: anti-LAG3 chimeric antibody c6H11B10 (antibody, human IgG4 S228P, V domains shown)
VH: B3 VH
VL: DIVMTQAAFSNPVTLGTSASISCRSSKSLLYSNGITYLYWYLQKPGQSPQLLIYQMSNLASGVPDRFSSSGSGTDFTLRISRVEAEDVGVYYCAQNLELPWTFGGGTKLEIKR
notes: Expressed in CHO-S cells; also called chimeric antibody protein c6H11B10
On to B4, for which the binding result in assay [10] is reported as “binds”.
